B1: COP-2 (CpE Obstructing Protein 2), synthetic antigen-binding fragment (Fab, V domains shown)
VH: EVQLVESGGGLVQPGGSLRLSCAASGFNFSSSSIHWVRQAPGKGLEWVASISSYSGYTSYADSVKGRFTISADTSKNTAYLQMNSLRAEDTAVYYCARYWSWYNSSHYIYSALDYWGQGTLVTVSS
VL: DIQMTQSPSSLSASVGDRVTITCRASQSVSSAVAWYQQKPGKAPKLLIYSASSLYSGVPSRFSGSRSGTDFTLTISSLQPEDFATYYCQQSYEWAPVTFGQGTKVEIK
notes: also called sFab; source: E. coli BL21-Gold, purified (MabSelect SuRe, Resource S)
B2: COP-3 (CpE Obstructing Protein 3), synthetic antigen-binding fragment (Fab, V domains shown)
VH: EVQLVESGGGLVQPGGSLRLSCAASGFNFYSSSIHWVRQAPGKGLEWVAYISSYSGYTYYADSVKGRFTISADTSKNTAYLQMNSLRAEDTAVYYCARGYGYFDYNFSVGYALDYWGQGTLVTVSS
VL: DIQMTQSPSSLSASVGDRVTITCRASQSVSSAVAWYQQKPGKAPKLLIYSASSLYSGVPSRFSGSRSGTDFTLTISSLQPEDFATYYCQQSHPWYYPITFGQGTKVEIK
notes: as for B1

Target: biotinylated claudin-4–cCpE^1 complex (Homo sapiens claudin-4; Clostridium …, UniProt O14493;P01558, biotin (NHS-PEG4-biotin; sites not stated))
Assay: BLI
Conditions: both partners purified

Chain of biotinylated claudin-4–cCpE^1 complex (O14493 whole entry, chain 1 of 2): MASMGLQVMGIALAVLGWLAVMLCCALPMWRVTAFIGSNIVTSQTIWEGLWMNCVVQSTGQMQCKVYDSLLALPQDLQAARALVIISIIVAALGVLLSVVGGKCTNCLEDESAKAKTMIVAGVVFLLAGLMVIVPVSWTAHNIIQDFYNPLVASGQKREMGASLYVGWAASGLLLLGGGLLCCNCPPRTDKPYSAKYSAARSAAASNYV
Chain of biotinylated claudin-4–cCpE^1 complex (P01558 197-319, chain 2 of 2): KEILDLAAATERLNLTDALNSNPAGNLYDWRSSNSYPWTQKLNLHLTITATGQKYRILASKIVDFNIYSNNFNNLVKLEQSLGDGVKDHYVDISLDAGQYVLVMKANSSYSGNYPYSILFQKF

Row | Binder | Kd [µM] | koff [s⁻¹] | kon [M⁻¹ s⁻¹]
1 | B1 | 0.1613 ± 0.0006 | 0.0012 | 7700
2 | B2 | 0.2 ± 0.0055 | 0.0039 | 19000

Source: paper PMC9463536 (The Journal of Biological Chemistry, 2022)
